These results are taken from article PMC7840889, “Architecture of the Tuberous Sclerosis Protein Complex” (Journal of Molecular Biology, 2021).

The stoichiometry N is a count of units in the complex or per binding partner.

B1: FLAG-tagged human TBC1D7 (natural protein, UniProt Q9P0N9 1-293, looked up)
chain: MTEDSQRNFRSVYYEKVGFRGVEEKKSLEILLKDDRLDTEKLCTFSQRFPLPSMYRALVWKVLLGILPPHHESHAKVMMYRKEQYLDVLHALKVVRFVSDATPQAEVYLRMYQLESGKLPRSPSFPLEPDDEVFLAIAKAMEEMVEDSVDCYWITRRFVNQLNTKYRDSLPQLPKAFEQYLNLEDGRLLTHLRMCSAAPKLPYDLWFKRCFAGCLPESSLQRVWDKVVSGSCKILVFVAVEILLTFKIKVMALNSAEKITKFLENIPQDSSDAIVSKAIDLWHKHCGTPVHSS
notes: human TBC1D7, 293 amino acids, GenBank AAH07054; part of the FL TSC1-TSC2-TBC1D7 (TSCCFL) plasmids; One copy stands in the TSCC
B2: FLAG-tagged full-length human TSC2 (natural protein)
chain: not shown
notes: human TSC2, full length, 1807 amino acids, UniProtKB/Swiss-Prot P49815-1; Could not be purified in the absence of TSC1; two copies stand in the TSCC; also called tuberin
B3: TSC1(Δ400-600) (natural protein, human, UniProt Q92574-1 1-1164, looked up)
chain: MAQQANVGELLAMLDSPMLGVRDDVTAVFKENLNSDRGPMLVNTLVDYYLETSSQPALHILTTLQEPHDKHLLDRINEYVGKAATRLSILSLLGHVIRLQPSWKHKLSQAPLLPSLLKCLKMDTDVVVLTTGVLVLITMLPMIPQSGKQHLLDFFDIFGRLSSWCLKKPGHVAEVYLVHLHASVYALFHRLYGMYPCNFVSFLRSHYSMKENLETFEEVVKPMMEHVRIHPELVTGSKDHELDPRRWKRLETHDVVIECAKISLDPTEASYEDGYSVSHQISARFPHRSADVTTSPYADTQNSYGCATSTPYSTSRLMLLNMPGQLPQTLSSPSTRLITEPPQATLWSPSMVCGMTTPPTSPGNVPPDLSHPYSKVFGTTAGGKGTPLGTPATSPPPAPPPPYDHLFEVALPKTAHHFVIRKTEELLKKAKGNTEEDGVPSTSPMEVLDRLIQQGADAHSKELNKLPLPSKSVDWTHFGGSPPSDEIRTLRDQLLLLHNQLLYERFKRQQHALRNRRLLRKVIKAAALEEHNAAMKDQLKLQEKDIQMWKVSLQKEQARYNQLQEQRDTMVTKLHSQIRQLQHDREEFYNQSQELQTKLEDCRNMIAELRIELKKANNKVCHTELLLSQVSQKLSNSESVQQQMEFLNRQLLVLGEVNELYLEQLQNKHSDTTKEVEMMKAAYRKELEKNRSHVLQQTQRLDTSQKRILELESHLAKKDHLLLEQKKYLEDVKLQARGQLQAAESRYEAQKRITQVFELEILDLYGRLEKDGLLKKLEEEKAEAAEAAEERLDCCNDGCSDSMVGHNEEASGHNGETKTPRPSSARGSSGSRGGGGSSSSSSELSTPEKPPHQRAGPFSSRWETTMGEASASIPTTVGSLPSSKSFLGMKARELFRNKSESQCDEDGMTSSLSESLKTELGKDLGVEAKIPLNLDGPHPSPPTPDSVGQLHIMDYNETHHEHS
notes: human TSC1 (1164 amino acids, Q92574-1) with an internal deletion of residues 400-600; also called TSC1 internal deletion construct; TSC1 of TSCC1Δ
B4: FLAG-tagged full-length human TSC1 (natural protein, UniProt Q92574-1 1-1164, looked up)
chain: MAQQANVGELLAMLDSPMLGVRDDVTAVFKENLNSDRGPMLVNTLVDYYLETSSQPALHILTTLQEPHDKHLLDRINEYVGKAATRLSILSLLGHVIRLQPSWKHKLSQAPLLPSLLKCLKMDTDVVVLTTGVLVLITMLPMIPQSGKQHLLDFFDIFGRLSSWCLKKPGHVAEVYLVHLHASVYALFHRLYGMYPCNFVSFLRSHYSMKENLETFEEVVKPMMEHVRIHPELVTGSKDHELDPRRWKRLETHDVVIECAKISLDPTEASYEDGYSVSHQISARFPHRSADVTTSPYADTQNSYGCATSTPYSTSRLMLLNMPGQLPQTLSSPSTRLITEPPQATLWSPSMVCGMTTPPTSPGNVPPDLSHPYSKVFGTTAGGKGTPLGTPATSPPPAPLCHSDDYVHISLPQATVTPPRKEERMDSARPCLHRQHHLLNDRGSEEPPGSKGSVTLSDLPGFLGDLASEEDSIEKDKEEAAISRELSEITTAEAEPVVPRGGFDSPFYRDSLPGSQRKTHSAASSSQGASVNPEPLHSSLDKLGPDTPKQAFTPIDLPCGSADESPAGDRECQTSLETSIFTPSPCKIPPPTRVGFGSGQPPPYDHLFEVALPKTAHHFVIRKTEELLKKAKGNTEEDGVPSTSPMEVLDRLIQQGADAHSKELNKLPLPSKSVDWTHFGGSPPSDEIRTLRDQLLLLHNQLLYERFKRQQHALRNRRLLRKVIKAAALEEHNAAMKDQLKLQEKDIQMWKVSLQKEQARYNQLQEQRDTMVTKLHSQIRQLQHDREEFYNQSQELQTKLEDCRNMIAELRIELKKANNKVCHTELLLSQVSQKLSNSESVQQQMEFLNRQLLVLGEVNELYLEQLQNKHSDTTKEVEMMKAAYRKELEKNRSHVLQQTQRLDTSQKRILELESHLAKKDHLLLEQKKYLEDVKLQARGQLQAAESRYEAQKRITQVFELEILDLYGRLEKDGLLKKLEEEKAEAAEAAEERLDCCNDGCSDSMVGHNEEASGHNGETKTPRPSSARGSSGSRGGGGSSSSSSELSTPEKPPHQRAGPFSSRWETTMGEASASIPTTVGSLPSSKSFLGMKARELFRNKSESQCDEDGMTSSLSESLKTELGKDLGVEAKIPLNLDGPHPSPPTPDSVGQLHIMDYNETHHEHS
notes: human TSC1, full length, 1164 amino acids, UniProtKB/Swiss-Prot Q92574-1; Two copies stand in the TSCC; also called hamartin

The data set “TSC1(Δ400-600)” concerns the target B3. The data set can be described thus: SEC-MALS; TSCC1Δ (TSC1(Δ400-600)-TSC2-TBC1D7) on Superose 6 10/300; 25 mM K-HEPES pH 7.6, 250 mM KCl, 0.5 mM EDTA, 1 mM TCEP; room temperature. To be noted: both partners purified.
Data set [1] concerns the target B4. The data set can be described thus: cryo-EM structure; single-particle cryo-EM of purified TSCCFL at 0.1-0.2 mg/mL on graphene oxide; 25 mM K-HEPES pH 7.6, 175 mM KCl or 150 mM LiCl, 1 mM TCEP; body 4.6 Å, pincer 8.1 Å, tail 8.2 Å. The settings on record: both partners purified.
Data set [2] concerns the molecule itself. The data set can be described thus: SEC-MALS; TSCC1Δ (TSC1(Δ400-600)-TSC2-TBC1D7) on Superose 6 10/300; 25 mM K-HEPES pH 7.6, 250 mM KCl, 0.5 mM EDTA, 1 mM TCEP; room temperature. (SEC sorts molecules by how far they enter the pores of the column.)
Data set [3] addresses B2. The description is as above. The settings on record: both partners purified.
For data set [4], the target named is B2. The data set is described as follows: cryo-EM structure; single-particle cryo-EM of purified TSCCFL at 0.1-0.2 mg/mL on graphene oxide; 25 mM K-HEPES pH 7.6, 175 mM KCl or 150 mM LiCl, 1 mM TCEP; body 4.6 Å, pincer 8.1 Å, tail 8.2 Å. To be noted: both partners purified.

Regarding B1, the binding result (with TSC1(Δ400-600); in data set [1]) was “binds” throughout. In the case of B2, in data set [2], the “stoichiometry N” value was around 2. With B3, the binding result in data set [3] was “binds”. Also, the “stoichiometry N” value in data set [2] was around 2. As to B4, the binding result in data set [4] is listed as “binds”.
